Data from article PMC11718236, “The Psu protein of phage satellite P4 inhibits transcription termination factor ρ by forced hyper-oligomerization” (Nature Communications, 2023).
Positions count from the first letter of the chain named. Numbers in names are those of the source.

Key:
[1] = biological target: T1, Rho (transcription termination factor ρ, wt);Psu (polarity suppression protein) (Escherichia coli;phage satellite P4, UniProt P0AG30;P05460 1-419;1-190, |); assay: fluorescence anisotropy; PBS; Psu up to 30 uM dimer has no effect; ADP-BeF3; 20 mM HEPES pH 7.5, 150 mM KCl, 5% glycerol, 5 mM MgCl2, 0.5 mM TCEP; SBS assays with 10 uM unlabeled dC15 and 2 mM ADP-BeF3; probe 5 uM dC15-FAM or 2 uM rU12-FAM; temperature not stated; settings: protein: recombinant;recombinant; tags: none;none; chain copies: 6;2; label: FAM (fluorescein); single strand
[2] = biological target: T2, Rho P167L;Psu (polarity suppression protein) (Escherichia coli;phage satellite P4, UniProt P0AG30;P05460 1-419;1-190, P167L|); assay: as above; settings: protein: recombinant;recombinant; tags: none;none; chain copies: 6;2; label: FAM (fluorescein); single strand
[3] = biological target: T1, Rho (transcription termination factor …); assay: fluorescence anisotropy; SBS; IC50 of Psu as inhibitor (very weak inhibition); dC15-blocked PBS; 2 mM ADP-BeF3; 20 mM HEPES pH 7.5, 150 mM KCl, 5% glycerol, 5 mM MgCl2, 0.5 mM TCEP; SBS assays with 10 uM unlabeled dC15 and 2 mM ADP-BeF3; probe 5 uM dC15-FAM or 2 uM rU12-FAM; temperature not stated; settings: protein: recombinant;recombinant; tags: none;none; chain copies: 6;2; label: FAM (fluorescein); single strand
[4] = biological target: T2, Rho P167L;Psu (polarity suppression …); assay: fluorescence anisotropy; Psu added to pre-formed ρP167L-dC15-rU12-FAM complex; RNA not displaced; ADP-BeF3; 20 mM HEPES pH 7.5, 150 mM KCl, 5% glycerol, 5 mM MgCl2, 0.5 mM TCEP; SBS assays with 10 uM unlabeled dC15 and 2 mM ADP-BeF3; probe 5 uM dC15-FAM or 2 uM rU12-FAM; temperature not stated; settings: protein: recombinant;recombinant; tags: none;none; chain copies: 6;2; label: FAM (fluorescein); single strand
[5] = biological target: transcription termination factor ρ P167L variant, non-tagged, purified (E. coli, UniProt P0AG30 1-419, P167L); assay: cell-based or functional assay
[6] = biological target: transcription termination factor ρ (wild type), non-tagged, purified (E. coli, UniProt P0AG30 1-419); assay: cell-based or functional assay
[7] = biological target: the molecule itself; assay: cryo-EM structure; ρ^P167L-ATPγS-Psu complexes; 10 mM TRIS-HCl pH 8.0, 120 mM KOAc, 5 mM Mg(OAc)2, 5 µM ZnCl2; 1 mM ATPγS; single-particle analysis

CCCCCCCCCCCCCCC (ssDNA) [dC15-FAM]
binding result [1]: binds | binding result [2]: binds

UUUUUUUUUUUU (ssRNA) [rU12-FAM]
IC50 [3]: 299 µM | binding result [4]: binds

B1: phage satellite P4 polarity suppression protein Psu (wild type), purified (natural protein)
chain: MESTALQQAFDTCQNNKAAWLQRKNELAAAEQEYLRLLSGEGRNVSRLDELRNIIEVRKWQVNQAAGRYIRSHEAVQHISIRDRLNDFMQQHGTALAAALAPELMGYSELTAIARNCAIQRATDALREALLSWLAKGEKINYSAQDSDILTTIGFRPDVASVDDSREKFTPAQNMIFSRKSAQLASRQSV
notes: polarity suppression protein Psu of phage satellite P4; No tag is told for the purified protein; also called Psu^wt; wt Psu; source: E. coli BL21 RIL, purified (ammonium sulfate precipitation, heparin, MonoQ, MonoS, Superdex 75 SEC)
IC50 of Psu for inhibition of rU12-FAM binding at the SBS of ρ^P167L (fluorescence anisotropy, with ADP-BeF3 and dC15) [5]: 2.8 µM | IC50 of inhibition of the RNA-stimulated ATPase activity of ρ^P167L by Psu (TLC, 1 h, 37 °C) [5]: 0.8 µM | decrease of the ρ^P167L ATPase rate at Psu dimer:ρ hexamer 10:1 and 50:1 (1.5-fold and 4-fold) [5]: 4 fold | IC50 of Psu for inhibition of rU12-FAM binding at the SBS of ρ^wt (fluorescence anisotropy, with ADP-BeF3 and dC15) [6]: 299 µM | IC50 of inhibition of the RNA-stimulated ATPase activity of ρ^wt by Psu (TLC, 1 h, 37 °C) [6]: 0.9 µM | decrease of the ρ^wt ATPase rate at Psu dimer:ρ hexamer 10:1 and 50:1 (1.3-fold and 1.6-fold) [6]: 1.6 fold | stoichiometry N [7]: 2

B2: Psu R43A variant, purified (natural protein, phage satellite P4)
chain: B1 chain with R43A
IC50 of inhibition of the RNA-stimulated ATPase activity of ρ^P167L by Psu^R43A (TLC, 1 h, 37 °C) [5]: 12.9 µM
